The target of assay [1] is tau pathology in PSP and AD (Homo sapiens, UniProt P10636). As to the kind of experiment: immunostaining of cells or tissue.
The target of assay [2] is Abeta in AD (senile plaques) (Homo sapiens, UniProt P05067). In words: immunostaining of cells or tissue.

This is an account of results in article doi:10.1101/2022.11.30.518485 (bioRxiv, 2022).

tau pathology in PSP and AD, sequence (P10636 whole entry): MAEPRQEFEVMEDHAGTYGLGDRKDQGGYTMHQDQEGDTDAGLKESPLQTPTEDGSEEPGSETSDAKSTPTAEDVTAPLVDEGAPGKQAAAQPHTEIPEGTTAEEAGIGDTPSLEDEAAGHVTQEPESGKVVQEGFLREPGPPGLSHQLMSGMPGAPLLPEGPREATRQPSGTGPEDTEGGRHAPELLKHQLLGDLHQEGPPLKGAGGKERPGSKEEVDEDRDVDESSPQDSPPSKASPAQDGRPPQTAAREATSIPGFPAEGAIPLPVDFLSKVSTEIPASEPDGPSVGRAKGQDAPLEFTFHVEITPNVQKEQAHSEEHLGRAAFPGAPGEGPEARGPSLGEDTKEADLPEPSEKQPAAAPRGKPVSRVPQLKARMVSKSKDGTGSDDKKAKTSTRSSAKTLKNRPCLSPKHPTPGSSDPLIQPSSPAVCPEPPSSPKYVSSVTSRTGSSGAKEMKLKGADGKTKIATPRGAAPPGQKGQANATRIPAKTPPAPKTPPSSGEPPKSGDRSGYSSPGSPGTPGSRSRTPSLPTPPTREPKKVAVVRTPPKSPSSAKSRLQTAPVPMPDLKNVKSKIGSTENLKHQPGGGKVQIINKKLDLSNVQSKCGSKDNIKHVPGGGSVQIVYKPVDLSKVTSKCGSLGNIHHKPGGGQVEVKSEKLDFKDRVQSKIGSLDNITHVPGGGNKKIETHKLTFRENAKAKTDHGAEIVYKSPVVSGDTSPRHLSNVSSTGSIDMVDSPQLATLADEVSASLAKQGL

B1: 306C7B3 (native IgG purified from the hybridoma clone) (antibody, V domains shown)
VH: EVQLVESGGGLVKPGGSRKLSCAASGFTFSDHGMHWVRQAPEKGLEWVAYISSGSSTIYYADTVKGRFTISRDNAKNTLFLQMTSLRSEDTAMYYCARSYIPYWGQGTLVTVSA
VL: DVVMTQTPLSLPVSLGDQASISCRSSQSLVHSNGNTYLHWYLQKPGQSPKLLIYKVSNRFSGVPDRFSGSGSGTDFTLKISRVEAEDLGVYFCSQSTHVPWTFGGGTKLEIK
In the case of B1, the binding result in assay [1] and in assay [2] was “no binding (tested: 1:10000 dilution)” throughout.
